What was measured:
[1] = target: heterologous livipeptin fraction 4.2HET (HPLC fraction at 4.2 minutes from E. coli transformed with pALVP)
[2] = target: T1, heterologous livipeptin fraction 4.4HET (HPLC fraction at 4.4 minutes from E. coli transformed with pALVP)
T1 chain: FR

[3] = target: heterologous livipeptin fraction 2.2HET (HPLC fraction at 2.2 minutes from E. coli transformed with pALVP)

B1: papain (protein)
chain: IPEYVDWRQKGAVTPVKNQGSCGSCWAFSAVVTIEGIIKIRTGNLNEYSEQELLDCDRRSYGCNGGYPWSALQLVAQYGIHYRNTYPYEGVQRYCRSREKGPYAAKTDGVRQVQPYNEGALLYSIANQPVSVVLEAAGKDFQLYRGGIFVGPCGNKVDHAVAAVGYGPNYILIKNSWGTGWGENGYIRIKRGTGNSYGVCGLYTSSFYPVKN
[1]
  anti-proteolytic activity (enzymatic assay): The anti-proteolytic activity of fractions 2.2, 4.2 and 4.4HET was confirmed through the enzymatic assay described previously, resulting active against papain
[2]
  anti-proteolytic activity (enzymatic assay): The anti-proteolytic activity of fractions 2.2, 4.2 and 4.4HET was confirmed through the enzymatic assay described previously, resulting active against papain
[3]
  anti-proteolytic activity (enzymatic assay): The anti-proteolytic activity of fractions 2.2, 4.2 and 4.4HET was confirmed through the enzymatic assay described previously, resulting active against papain
